Test system: Escherichia coli TOP10
Test: shrunken log2 fold change of peptide-encoding DNA abundance (4.5 h post-induction vs induction); higher = less antimicrobial activity (less host growth inhibition)
Conditions: time post-induction: 4.5 h; library: site-saturation at positions 5, 18, 19, 20
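Note: peptides expressed intracellularly from a pBAD plasmid library in pooled LB shake-flask culture, induced with 0.3% L-arabinose, DNA abundance read by NGS, three biological replicates, DESeq2 with apeglm shrinkage.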

Row | Sequence | shrunken log2 fold change
1 | RRIRGRPPRLPRPRPRPKYRPRP | 0.000233
2 | RRIRMRPPRLPRPRPRPHHCPRP | -0.27
3 | RRIRNRPPRLPRPRPRPQEDPRP | 0.00256
4 | RRIRPRPPRLPRPRPRPSIQPRP | -0.696
5 | RRIRPRPPRLPRPRPRPWPRPRP | 0.766
6 | RRIRMRPPRLPRPRPRPCYPPRP | -0.352
7 | RRIRMRPPRLPRPRPRPQLLPRP | 0.0491
8 | RRIRLRPPRLPRPRPRPCCYPRP | -0.611
9 | RRIRRRPPRLPRPRPRPVYMPRP | -0.0789
10 | RRIRCRPPRLPRPRPRPFGLPRP | -0.0423
11 | RRIRRRPPRLPRPRPRPEWRPRP | 0.639
12 | RRIRWRPPRLPRPRPRPDHSPRP | -0.198
13 | RRIRCRPPRLPRPRPRPSRGPRP | 0.333
14 | RRIRGRPPRLPRPRPRPAGLPRP | 0.479
15 | RRIRKRPPRLPRPRPRPNVIPRP | 0.0501
16 | RRIRERPPRLPRPRPRPFKAPRP | 2.45
17 | RRIRRRPPRLPRPRPRPKPYPRP | -0.033
18 | RRIRHRPPRLPRPRPRPALDPRP | -0.103
19 | RRIRYRPPRLPRPRPRPVGIPRP | 0.177
20 | RRIRNRPPRLPRPRPRPMPAPRP | -0.142
21 | RRIRWRPPRLPRPRPRPPTTPRP | 0.277
22 | RRIRQRPPRLPRPRPRPIVAPRP | -0.00611
23 | RRIRARPPRLPRPRPRPRDLPRP | -0.162
24 | RRIRPRPPRLPRPRPRPQIGPRP | 0.128
25 | RRIRYRPPRLPRPRPRPQSCPRP | 0.0148

Row | Sequence | shrunken log2 fold change
26 | RRIRERPPRLPRPRPRPLSAPRP | -0.229
27 | RRIRKRPPRLPRPRPRPDMWPRP | 0.245
28 | RRIRVRPPRLPRPRPRPQTQPRP | 0.104
29 | RRIRFRPPRLPRPRPRPAHPPRP | 0.267
30 | RRIRPRPPRLPRPRPRPGEEPRP | 0.359
31 | RRIRIRPPRLPRPRPRPETWPRP | 0.142
32 | RRIRTRPPRLPRPRPRPWLCPRP | 0.0607
33 | RRIRFRPPRLPRPRPRPIKNPRP | -0.514
34 | RRIRKRPPRLPRPRPRPTGDPRP | 0.727
35 | RRIRGRPPRLPRPRPRPTATPRP | 3.4
36 | RRIRGRPPRLPRPRPRPPYIPRP | -0.271
37 | RRIRRRPPRLPRPRPRPLQQPRP | 0.0366
38 | RRIRFRPPRLPRPRPRPQVNPRP | -0.0623
39 | RRIRNRPPRLPRPRPRPFVVPRP | -0.676
40 | RRIRKRPPRLPRPRPRPNAYPRP | -0.082
41 | RRIRCRPPRLPRPRPRPIWCPRP | 2.08e-06
42 | RRIRRRPPRLPRPRPRPNPTPRP | 0.0244
43 | RRIRWRPPRLPRPRPRPEEWPRP | -0.0123
44 | RRIRVRPPRLPRPRPRPHSWPRP | 0.0662
45 | RRIRLRPPRLPRPRPRPESHPRP | -0.118
46 | RRIRRRPPRLPRPRPRPEWSPRP | 0.274
47 | RRIRWRPPRLPRPRPRPDDNPRP | 0.174
48 | RRIRQRPPRLPRPRPRPIKPPRP | 0.0492
49 | RRIRHRPPRLPRPRPRPAFWPRP | 0.741
50 | RRIRKRPPRLPRPRPRPAPNPRP | 0.631

Row | Sequence | shrunken log2 fold change
51 | RRIRMRPPRLPRPRPRPCAPPRP | 0.478
52 | RRIRRRPPRLPRPRPRPHGRPRP | 0.0549
53 | RRIRKRPPRLPRPRPRPHWLPRP | 0.148
54 | RRIRYRPPRLPRPRPRPYGIPRP | -0.064
55 | RRIRSRPPRLPRPRPRPGKFPRP | -0.111
56 | RRIRGRPPRLPRPRPRPSVQPRP | -0.0165
57 | RRIRRRPPRLPRPRPRPPLLPRP | 0.675
58 | RRIRFRPPRLPRPRPRPEAYPRP | -0.0029
59 | RRIRWRPPRLPRPRPRPNKCPRP | -0.109
60 | RRIRCRPPRLPRPRPRPNDIPRP | -0.762
61 | RRIRMRPPRLPRPRPRPIAAPRP | 2.71
62 | RRIRGRPPRLPRPRPRPTHLPRP | 0.359
63 | RRIRARPPRLPRPRPRPNAKPRP | 0.262
64 | RRIRHRPPRLPRPRPRPFCEPRP | -0.394
65 | RRIRVRPPRLPRPRPRPQKYPRP | -0.783
66 | RRIRVRPPRLPRPRPRPYIQPRP | -0.472
67 | RRIRMRPPRLPRPRPRPFQLPRP | 0.118
68 | RRIRTRPPRLPRPRPRPAMEPRP | -0.0176
69 | RRIRERPPRLPRPRPRPYIAPRP | -0.946
70 | RRIRERPPRLPRPRPRPGVMPRP | 0.0523
71 | RRIRPRPPRLPRPRPRPINAPRP | -0.292
72 | RRIRMRPPRLPRPRPRPEVEPRP | -0.0272
73 | RRIRHRPPRLPRPRPRPPLWPRP | 0.323
74 | RRIRPRPPRLPRPRPRPRTRPRP | 0.187
75 | RRIRERPPRLPRPRPRPKILPRP | -0.0994

Row | Sequence | shrunken log2 fold change
76 | RRIRQRPPRLPRPRPRPYVPPRP | -0.157
77 | RRIRQRPPRLPRPRPRPSGVPRP | -0.141
78 | RRIRDRPPRLPRPRPRPASDPRP | 0.0114
79 | RRIRDRPPRLPRPRPRPQGEPRP | -0.0304
80 | RRIRHRPPRLPRPRPRPPDWPRP | 0.536
81 | RRIRSRPPRLPRPRPRPRWWPRP | 1.26
82 | RRIRNRPPRLPRPRPRPSRMPRP | -0.454
83 | RRIRARPPRLPRPRPRPPVYPRP | 0.0965
84 | RRIRERPPRLPRPRPRPEEEPRP | 0.102
85 | RRIRWRPPRLPRPRPRPTKSPRP | 0.176
86 | RRIRQRPPRLPRPRPRPHGEPRP | 0.215
87 | RRIRQRPPRLPRPRPRPHFTPRP | -0.217
88 | RRIRERPPRLPRPRPRPYWTPRP | -0.0954
89 | RRIRMRPPRLPRPRPRPCKMPRP | 0.0367
90 | RRIRQRPPRLPRPRPRPGACPRP | 0.206
91 | RRIRCRPPRLPRPRPRPPVPPRP | 0.587
92 | RRIRARPPRLPRPRPRPDCMPRP | 0.386
93 | RRIRSRPPRLPRPRPRPCAIPRP | -0.475
94 | RRIRERPPRLPRPRPRPGSFPRP | 0.0492
95 | RRIRQRPPRLPRPRPRPTITPRP | -0.273
96 | RRIRSRPPRLPRPRPRPIVCPRP | 0.0317
97 | RRIRSRPPRLPRPRPRPNKGPRP | -0.413
98 | RRIRRRPPRLPRPRPRPNYAPRP | 0.0933
99 | RRIRGRPPRLPRPRPRPYGWPRP | -0.0363
100 | RRIRSRPPRLPRPRPRPFCTPRP | -0.375

Row | Sequence | shrunken log2 fold change
101 | RRIRNRPPRLPRPRPRPQTNPRP | -0.276
102 | RRIRARPPRLPRPRPRPQMFPRP | -0.046
103 | RRIRVRPPRLPRPRPRPHRIPRP | -0.0697
104 | RRIRARPPRLPRPRPRPVAKPRP | 0.577
105 | RRIRQRPPRLPRPRPRPTMRPRP | 0.86
106 | RRIRNRPPRLPRPRPRPVKDPRP | -0.01
107 | RRIRGRPPRLPRPRPRPSGGPRP | 0.391
108 | RRIRHRPPRLPRPRPRPPGHPRP | 0.184
109 | RRIRKRPPRLPRPRPRPQGFPRP | -0.00783
110 | RRIRFRPPRLPRPRPRPYQDPRP | -0.151
111 | RRIRCRPPRLPRPRPRPTSGPRP | 0.285
112 | RRIRCRPPRLPRPRPRPGFFPRP | 0.0565
113 | RRIRRRPPRLPRPRPRPIFWPRP | 0.821
114 | RRIRSRPPRLPRPRPRPEEMPRP | -0.0122
115 | RRIRLRPPRLPRPRPRPNKDPRP | -0.683
116 | RRIRYRPPRLPRPRPRPMDRPRP | -0.0498
117 | RRIRPRPPRLPRPRPRPLRYPRP | 0.17
118 | RRIRERPPRLPRPRPRPDYEPRP | -0.202
119 | RRIRYRPPRLPRPRPRPGISPRP | -0.0863
120 | RRIRCRPPRLPRPRPRPMGRPRP | 0.162
121 | RRIRKRPPRLPRPRPRPDKPPRP | 0.128
122 | RRIRKRPPRLPRPRPRPHCDPRP | 0.266
123 | RRIRFRPPRLPRPRPRPHHWPRP | -0.499
124 | RRIRIRPPRLPRPRPRPYKVPRP | -0.385
125 | RRIRKRPPRLPRPRPRPMQNPRP | 0.282

From the supplement of paper PMC9112550, “Optimization of the antimicrobial peptide Bac7 by deep mutational scanning” (BMC Biology, 2022)
